Data taken from patent US20230012273A1 (Boehringer Ingelheim, published 2023).

T1: cynoSIRPα (EGM_02252), Extracellular Domain + His-Tag (cynomolgus monkey)
T1 construct: also called CySIRPα EGM_02252; not shown: His-Tag
T1 chain: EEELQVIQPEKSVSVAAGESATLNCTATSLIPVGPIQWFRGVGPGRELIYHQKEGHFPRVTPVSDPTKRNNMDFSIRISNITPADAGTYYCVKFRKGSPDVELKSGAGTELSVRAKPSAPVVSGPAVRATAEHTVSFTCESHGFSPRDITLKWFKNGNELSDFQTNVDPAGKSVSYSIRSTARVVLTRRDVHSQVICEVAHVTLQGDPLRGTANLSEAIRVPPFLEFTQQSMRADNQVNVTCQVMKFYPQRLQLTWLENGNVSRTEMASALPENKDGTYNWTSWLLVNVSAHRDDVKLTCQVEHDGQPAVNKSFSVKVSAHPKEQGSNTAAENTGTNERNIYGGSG

T2: cynoSIRPα (NP_001271679), Extracellular Domain + His-Tag (cynomolgus monkey)
T2 construct: also called CySIRPα NP_001271679; not shown: His-Tag
T2 chain: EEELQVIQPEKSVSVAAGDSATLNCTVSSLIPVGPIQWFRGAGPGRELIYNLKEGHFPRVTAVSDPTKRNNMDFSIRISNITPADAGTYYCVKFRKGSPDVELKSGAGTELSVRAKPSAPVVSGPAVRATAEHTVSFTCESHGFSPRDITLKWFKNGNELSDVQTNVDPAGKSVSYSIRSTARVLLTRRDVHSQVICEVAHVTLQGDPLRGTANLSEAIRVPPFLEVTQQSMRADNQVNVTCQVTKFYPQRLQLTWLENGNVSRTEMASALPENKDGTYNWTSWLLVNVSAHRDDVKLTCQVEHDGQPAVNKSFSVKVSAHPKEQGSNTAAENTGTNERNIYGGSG

T3: cynoSIRPα (XP_015313155), Extracellular Domain + His-Tag (cynomolgus monkey)
T3 construct: also called CySIRPα XP_015313155; not shown: His-Tag
T3 chain: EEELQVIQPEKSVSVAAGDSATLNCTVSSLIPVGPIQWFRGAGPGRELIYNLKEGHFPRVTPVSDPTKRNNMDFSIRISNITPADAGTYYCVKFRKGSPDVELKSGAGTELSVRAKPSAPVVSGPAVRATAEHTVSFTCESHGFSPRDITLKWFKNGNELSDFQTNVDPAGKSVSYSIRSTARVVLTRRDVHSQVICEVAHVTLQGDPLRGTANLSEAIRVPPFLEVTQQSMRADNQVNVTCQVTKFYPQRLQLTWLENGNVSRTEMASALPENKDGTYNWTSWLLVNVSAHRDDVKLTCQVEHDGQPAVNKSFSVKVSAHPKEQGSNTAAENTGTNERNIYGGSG


Assays:
[1] = target: T1, cynoSIRPα (EGM_02252), Extracellular …; experiment: SPR, antibody captured on Protein A/G, ECD-His analyte
Description: (§1) The binding kinetics of anti-SIRPα antibodies to various SIRPα analytes are determined by surface plasmon resonance (SPR) using a Biacore 8K+(Cytiva). 1×HBS-EP+(Cytiva) is used as running buffer and for all the dilutions unless stated otherwise. The Series S CM5 sensorchip is activated with a 1:1 mixture of 0.1 M NHS (N-hydroxysuccinimide) and 0.4 M EDC (1-Ethyl-3-(3-dimethylaminopropyl) carbodiimide hydrochloride) for 420 seconds at a flow rate of 10 μl/min and immobilized with Protein A/G (Thermo Scientific, 10 μg/ml in 10 mM acetate pH 4.5) for 420 seconds at a flowrate of 10 μl/min resulting in approximately 3000 RU of Protein A/G on the surface. The sensorchip is then deactivated with 1 M ethanolamine HCl pH 8.5 for 420 seconds at a flowrate of 10 μl/min.
(§2) Antibodies (approximately 1 ug/ml) are captured on the Protein A/G surface for 60 seconds at a flowrate of 10 μl/min resulting in capture levels of approximately 240 RU. Dilutions of each SIRP protein (Extracellular Domain+His-Tag, with the concentrations as indicated) are injected as analytes over the captured antibody for 300 seconds of association at a flowrate of 30 μl/min, followed by a dissociation for 600 seconds.

[2] = target: T4, Human SIRPαV1 (NP_542970.1), Extracellular Domain + His-Tag (human, UniProt P78324 31-373); experiment: SPR, antibody captured on Protein A/G, ECD-His analyte, 1:1 fit
T4 construct: also called huSIRPαV1; hSIRPαV1; not shown: His-Tag
T4 sequence (P78324 other isoform, or with tags, fused parts or gaps): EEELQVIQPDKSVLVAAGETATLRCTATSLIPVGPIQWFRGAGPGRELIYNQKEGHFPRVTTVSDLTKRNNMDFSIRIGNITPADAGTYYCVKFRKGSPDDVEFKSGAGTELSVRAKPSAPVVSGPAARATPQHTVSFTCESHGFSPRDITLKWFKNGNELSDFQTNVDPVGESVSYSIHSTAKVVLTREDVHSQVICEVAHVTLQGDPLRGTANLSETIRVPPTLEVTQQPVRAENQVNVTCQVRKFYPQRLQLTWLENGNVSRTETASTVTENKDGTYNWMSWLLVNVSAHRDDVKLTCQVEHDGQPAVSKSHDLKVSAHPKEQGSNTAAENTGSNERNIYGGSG
Description: as §1, §2
(§3) The above procedures are used to measure binding properties of antibodies of the present disclosure. For each analyte used, the highest concentration was as indicated in Example 3 (see Table 36).

[3] = target: T5, Human SIRPαV2 (CAA71403.1), Extracellular Domain + His-Tag (human, UniProt P78324 31-373); experiment: as above
T5 construct: also called huSIRPαV2; hSIRPαV2; not shown: His-Tag
T5 sequence (P78324 other isoform, or with tags, fused parts or gaps): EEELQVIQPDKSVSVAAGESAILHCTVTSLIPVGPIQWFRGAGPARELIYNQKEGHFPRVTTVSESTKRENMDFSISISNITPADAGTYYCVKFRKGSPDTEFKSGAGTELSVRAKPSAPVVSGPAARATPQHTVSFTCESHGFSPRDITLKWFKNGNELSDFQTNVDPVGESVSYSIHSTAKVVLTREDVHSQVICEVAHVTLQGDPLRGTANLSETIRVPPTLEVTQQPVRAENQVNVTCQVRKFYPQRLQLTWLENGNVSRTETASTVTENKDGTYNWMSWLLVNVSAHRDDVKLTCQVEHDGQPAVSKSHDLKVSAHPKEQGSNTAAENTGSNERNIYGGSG
Description: as §1, §2, §3

[4] = target: T2, cynoSIRPα (NP_001271679), Extracellular …; experiment: as above
Description: as §1, §2, §3

[5] = target: T3, cynoSIRPα (XP_015313155), Extracellular …; experiment: as above
Description: as §1, §2, §3

| Binder | binding result [1] | Kd [2] | koff [2] | kon [2] | Kd [3] | koff [3] | kon [3] | Kd [4] | koff [4] | kon [4] | Kd [5] | koff [5] | kon [5] |
| --- | --- | --- | --- | --- | --- | --- | --- | --- | --- | --- | --- | --- | --- |
| Antibody E4 (antibody, human IgG1, kappa, L234A L235A, V domains shown) VH: QVQLQESGPGLVRPSETLSLTCTVSGGSIRNYYWSWIRQPPGKGLEWIGFIYYNGRTFYNPSLKSRVTISLDMSKNQFSLKMTSVTAADTAVYYCARVRAYSGIGLDGTDVWGQGTTVTVSS VL: DIVMTQSPLSLPVTPGEPASISCKSSQSLLYSNGYAYLDWYLQRPGQSPQLLIYLGSNRASGVPDRFSGSGSGTDFTLKISRVEAEDVGVYYCMQALQTPLTFGGGTKVEIKR | no binding (tested: 1000 nM) | 0.99 nM | 0.000433 s⁻¹ | 438000 M⁻¹ s⁻¹ | 0.82 nM | 0.000421 s⁻¹ | 511000 M⁻¹ s⁻¹ | 21.1 nM | 0.00468 s⁻¹ | 222000 M⁻¹ s⁻¹ | 19.8 nM | 0.00451 s⁻¹ | 228000 M⁻¹ s⁻¹ |
| Antibody E5 (antibody, human IgG1, kappa, L234A L235A, V domains shown) VH: QVQLQESGPGLVRPSETLSLTCTVSGGSIRNYYWSWIRQPPGKGLEWIGFIYYNGRTFYNPSLKSRVTISLDKSKNQFSLKMTSVTAADTAVYYCARVRAYSGIGLDGTDVWGQGTTVTVSS VL: DIVMTQSPLSLPVTPGEPASISCKSSQSLLYSNGYAYLDWYLQRPGQSPQLLIYQGSNRASGVPDRFSGSGSGTDFTLKISRVEAEDVGVFYCMQALQTPLTFGGGTKVEIKR | no binding (tested: 1000 nM) | 1.02 nM | 0.000336 s⁻¹ | 331000 M⁻¹ s⁻¹ | 0.87 nM | 0.000355 s⁻¹ | 406000 M⁻¹ s⁻¹ | 38.2 nM | 0.00471 s⁻¹ | 123000 M⁻¹ s⁻¹ | 37.8 nM | 0.00459 s⁻¹ | 121000 M⁻¹ s⁻¹ |
| Antibody E6 (antibody, human IgG1, kappa, L234A L235A, V domains shown) VH: QVQLQESGPGLVRPSETLSLTCTVSGGSIRNYYWSWIRQPPGKGLEWIGFIYYNGRTFYNPSLKSRVTISLDKSKNQFSLKMTSVTAADTAVYYCARVRAYSGIGLDGTDVWGQGTTVTVSS VL: DIVMTQSPLSLPVTPGEPASISCKSSQSLLYSNGYAYLDWYLQRPGQSPQLLIYLGSNRASGVPDRFSGSGSGTDFTLKISRVEAEDVGVYYCMQALQTPLTFGGGTKVEIKR | no binding (tested: 1000 nM) | 1.03 nM | 0.000386 s⁻¹ | 374000 M⁻¹ s⁻¹ | 0.88 nM | 0.000375 s⁻¹ | 429000 M⁻¹ s⁻¹ | 41 nM | 0.00774 s⁻¹ | 189000 M⁻¹ s⁻¹ | 41.6 nM | 0.00729 s⁻¹ | 175000 M⁻¹ s⁻¹ |
| Antibody E7 (antibody, human IgG1, kappa, L234A L235A, V domains shown) VH: QVQLQESGPGLVRPSETLSLTCTVSGGSIRNYYWSWIRQPPGKGLEWIGFIYYNGRTFYNPSLKSRVTISLDTSKNQFSLKMTSVTAADTAVYYCARVRAYSGIGLDGTDVWGQGTTVTVSS VL: DIVMTQSPLSLPVTPGEPASISCKSSQSLLYSNGYAYLDWYLQRPGQSPQLLIYQGSNRASGVPDRFSGSGSGTDFTLKISRVEAEDVGVFYCMQALQTPLTFGGGTKVEIKR | no binding (tested: 1000 nM) | 1.2 nM | 0.000453 s⁻¹ | 378000 M⁻¹ s⁻¹ | 1.18 nM | 0.000552 s⁻¹ | 468000 M⁻¹ s⁻¹ | 21.9 nM | 0.00346 s⁻¹ | 158000 M⁻¹ s⁻¹ | 21.2 nM | 0.00337 s⁻¹ | 159000 M⁻¹ s⁻¹ |
| Antibody E8 (antibody, human IgG1, kappa, L234A L235A, V domains shown) VH: QVQLQESGPGLVRPSETLSLTCTVSGGSIRNYYWSWIRQPPGKGLEWMGFIYDNGRTFYNPSLKSRVTISLDMSMNQFSLKMTSVTAADTAVYYCARVRAYSGIGLDGTDVWGQGTTVTVSS VL: DIVMTQSPLSLPVTPGEPASISCKSSQSLLYSNGYAYLDWYLQRPGQSPQLLIYQGSNRASGVPDRFSGSGSGTDFTLKISRVEAEDVGVFYCMQALQTPLTFGGGTKVEIKR | no binding (tested: 1000 nM) | 1.21 nM | 0.00039 s⁻¹ | 322000 M⁻¹ s⁻¹ | 0.54 nM | 0.000236 s⁻¹ | 435000 M⁻¹ s⁻¹ | 17.7 nM | 0.0036 s⁻¹ | 204000 M⁻¹ s⁻¹ | 16.6 nM | 0.00344 s⁻¹ | 207000 M⁻¹ s⁻¹ |
| Antibody E9 (antibody, human IgG1, kappa, L234A L235A, V domains shown) VH: QVQLQESGPGLVRPSETLSLTCTVSGGSIRNYYWSWIRQPPGKGLEWIGFIYYNGRTFYNPSLKSRVTISLDMSINQFSLKMTSVTAADTAVYYCARVRAYSGIGLDGTDVWGQGTTVTVSS VL: DIVMTQSPLSLPVTPGEPASISCKSSQSLLYSNAYNYLDWYLQRPGQSPQLLIYLGSNRASGVPDRFSGSGSGTDFTLKISRVEAEDVGVYYCMQALQTPLTFGGGTKVEIKR | no binding (tested: 1000 nM) | 1.22 nM | 0.000631 s⁻¹ | 518000 M⁻¹ s⁻¹ | 0.94 nM | 0.000548 s⁻¹ | 583000 M⁻¹ s⁻¹ | 43.7 nM | 0.014 s⁻¹ | 321000 M⁻¹ s⁻¹ | 40.8 nM | 0.0132 s⁻¹ | 324000 M⁻¹ s⁻¹ |
| Antibody E10 (antibody, human IgG1, kappa, L234A L235A, V domains shown) VH: QVQLQESGPGLVRPSETLSLTCTVSGGSIRNYYWSWIRQPPGKGLEWIGFIYYNGRTFYNPSLKSRVTISLDTSKNQFSLKMTSVTAADTAVYYCARVRAYSGIGLDGTDVWGQGTTVTVSS VL: DIVMTQSPLSLPVTPGEPASISCKSSQSLLYSNGYAYLDWYLQRPGQSPQLLIYLGSNRASGVPDRFSGSGSGTDFTLKISRVEAEDVGVYYCMQALQTPLTFGGGTKVEIKR | no binding (tested: 1000 nM) | 1.23 nM | 0.000518 s⁻¹ | 422000 M⁻¹ s⁻¹ | 1.2 nM | 0.000596 s⁻¹ | 498000 M⁻¹ s⁻¹ | 25.2 nM | 0.00545 s⁻¹ | 216000 M⁻¹ s⁻¹ | 23.7 nM | 0.00526 s⁻¹ | 222000 M⁻¹ s⁻¹ |
| Antibody E11 (antibody, human IgG1, kappa, L234A L235A, V domains shown) VH: QVQLQESGPGLVRPSETLSLTCTVSGGSIRNYYWSWIRQPPGKGLEWMGFIYDNGRTFYNPSLKSRVTISLDMSMNQFSLKMTSVTAADTAVYYCARVRAYSGIGLDGTDVWGQGTTVTVSS VL: DIVMTQSPLSLPVTPGEPASISCKSSQSLLYSNGYAYLDWYLQRPGQSPQLLIYLGSNRASGVPDRFSGSGSGTDFTLKISRVEAEDVGVYYCMQALQTPLTFGGGTKVEIKR | no binding (tested: 1000 nM) | 1.41 nM | 0.000498 s⁻¹ | 352000 M⁻¹ s⁻¹ | 0.57 nM | 0.000258 s⁻¹ | 453000 M⁻¹ s⁻¹ | 20.3 nM | 0.00542 s⁻¹ | 267000 M⁻¹ s⁻¹ | 20 nM | 0.00549 s⁻¹ | 275000 M⁻¹ s⁻¹ |
